From publication PMC8433370, “Low sample volume origami-paper-based graphene-modified aptasensors for label-free electrochemical detection of cancer biomarker-EGFR”

Target: EGFR antigen (epidermal growth factor receptor) (UniProt P00533 25-645)
Experiment: electrochemical aptasensor (CV/DPV); aptamer on NH2-GO/THI/AuNP paper electrode; linear range 0.05-200 ng/mL, LOD 5 pg/mL (not a Kd); Aptamer on NH2-GO/THI/AuNP electrode, mercaptoethanol block, wash in TE (10 mM Tris-HCl, 1 mM EDTA; TE stock pH 8.0); binding buffer and temperature not given in the material
Conditions: protein: commercial

B1: anti-EGFR aptamer (ssDNA)
DNA: TACCAGTGCGATGCTCAGTGCCGTTTCTTCTCTTTCGCTTTTTTTGCTTTTGAGCATGCTGACGCATTCGGTTGAC
modifications: 5'-thiol
binding result: binds
